Two molecules from publication PMC6933062 (Annals of Laboratory Medicine, 2019) can be followed below.

Changes are numbered by the printed parent chain. Ends that are not written are not given here. * marks the point of attachment. Biotin = O=C1N[C@H]2[C@H](CS[C@H]2CCCCC(=O)*)N1; Ttds = NCCCOCCOCCOCCCNC(=O)CCC(=O)*

The target of the experiment is T1, biotinylated synthetic peptide containing the PDZ-binding motif of cadherin-related 23 ….
T1 peptide: {Biotin-Ttds}-VIMESPLEITEL
The experiment in a line: BLI. In general terms: BLI is a label-free optical method that tracks binding on a fibre tip over time.

B1: wild-type PDZ2 domain of harmonin (domain or fragment)
chain: GGLGSPGNRTTKEKKVFISLVGSRGLGCSISSGPIQKPGIFVSHVKPGSLSAEVGLETGDQIVEVNGIDFTNLDHKEAVNVLKSSRSLTISIVAGAGRE
Take B1: the Kd worked out at 37.6 ± 4.1 µM.

B2: variant PDZ2 domain of harmonin carrying p.Gly223Cys (domain or fragment)
chain: B1 chain with G27C
B2 showed a Kd of 621 ± 88 µM.

The Kd is a measure of binding affinity in units of concentration. High values mean lower affinity, low ones higher affinity.
